Assay results reported in patent CN115386006A (SHANGHAI XIANGYAO BIOLOGICAL TECH CO LTD, dated 2022).
Changes are numbered by the printed parent chain.

B1: HTS0370 scFv (scFv, V domains shown)
VH: EVQLQQSGAELMKPGASVKISCKATGYTFSSYWMEWVKQRPGLGLEWIGQILPGSSYTNYNDKFKGKATFTADTSSNTAYMQLSSLTSEDSAVYYCAKKGGPIYYGNRPFYYAMDYWGQGTSVTVSS
VL: NIMMTQTPKFLLVSAGDRVTITCKASQSVSNDVAWYQQKPGQSPKLQIYYASNRYTGVPDRFTGSGYGTDFTFTISTVQAEDLAVYFCQQDYSSPLTFGAGTKLEIK
notes: Tested as one scFv chain in E. coli supernatant, found with an anti-6xHis antibody
B2: HTS0371 scFv (scFv, V domains shown)
VH: EVQLQQSGPELVKPGASVKMSCKASGYTFTSYVMHWVKQKPGQGLEWIGYINPYNDGTKYNEKFKGKATLTSDKSSSTAYMELSSLTSEDSAVYYCARGGKLNWYFDVWGAGTTVTVSS
VL: NIVMTQSPASLAVSLGQRATISCRASESVDSYGNSFMHWYQQKPGQPPKLLIYLASNLESGVPARFSGSGSRTDFTLTIDPVEADDAATYYCQQNNEDPYTFGGGTKLEIN
notes: as for B1
B3: HTS0372 scFv (scFv, V domains shown)
VH: EVQLQQSGPELVKPGASMKISCKASGYSFTGYTMNWVKQSHGKNLEWIGLINPYNGRTIYNQKFKGKATLTVDKSSSTAYMELLSLTSEDSAVYYCARVALRYAMDYWGQGTSLTVSS
VL: DIVMTQSQKFMSTSVGDRVSVTCKASQNVGTNVAWYQQKPGQSPKALIYSASYRYSGVPDRFTGSGSGTDFTLTISNVQSEDLAEYFCQQYNSYPLTFGAGTKLEIN
notes: as for B1
B4: HTS0375 scFv (scFv, V domains shown)
VH: B3 VH
VL: B3 VL with D1S, R18K, N28S, G30Y, A46S, S56N, L96V, N107K
notes: as for B1
B5: HTS0373 scFv (scFv, V domains shown)
VH: EVQLQQSGPELVKPGASMKISCKASGYSFAGYTVNWVKQSHGKNLEWIGLINPYNGGTTYTPKFKDKATLTVDKSSSTAYMELLSLTSEDSAVYYCTRGGFYRYDFDFWGQGTSVTVSS
VL: DILMTQSPSSLSASLGERVSLTCRASQEISGYLSWLQQKPDGTIKRLIYAASTLDSGVPKRFSGSRSGSDYSLTISSLESEDFADYYCLQYASYPFTFGSGTKLEMK
notes: as for B1
B6: HTS0374 scFv (scFv, V domains shown)
VH: B5 VH with E1Q, A16T, A30T, V115L
VL: EIQMTQSPSSLSASLGERVSLTCRASQDIGSSLNWLQQEPDGTIKRLIYATSSLDSGVPKRFSGSRSGSDYSLTISSLESEDFVDYYCLQYASSPYTFGGGTKLEMK
notes: as for B1

The binders below were run against T1, 人GPRC5D (human G protein-coupled receptor family C group 5 member D) (human, UniProt Q9NZD1 1-345) (assay: flow cytometry, scFv supernatant on HEK293-GPRC5D-ZSGreen1 and H929 cells, APC anti-6xHis).
T1 construct: also called huGPRC5D; hGPRC5D
T1 sequence (Q9NZD1 whole entry): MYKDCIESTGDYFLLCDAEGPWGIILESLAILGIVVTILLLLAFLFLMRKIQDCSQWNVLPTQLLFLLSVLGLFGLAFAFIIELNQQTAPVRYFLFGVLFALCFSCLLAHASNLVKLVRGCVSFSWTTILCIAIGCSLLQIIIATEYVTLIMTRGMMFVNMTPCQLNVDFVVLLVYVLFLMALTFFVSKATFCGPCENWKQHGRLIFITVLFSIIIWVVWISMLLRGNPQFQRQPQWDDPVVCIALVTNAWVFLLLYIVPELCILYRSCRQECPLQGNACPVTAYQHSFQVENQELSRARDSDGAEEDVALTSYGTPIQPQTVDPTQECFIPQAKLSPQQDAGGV
B1: binds.
B2: binds.
B3: binds.
B4: binds.
B5: binds.
B6: binds.
